Reference: US20240216518A1 (HARPOON THERAPEUTICS, published 2024)

Legend:
[1] = biological target: T1, FLT3 TriTAC; test: biolayer interferometry
T1 construct: Single-chain trispecific; also called constitutively active FLT3 TriTAC

[2] = biological target: T2, stub:Active control; αCD19 T:A:C stub:Active; test: ELISA on recombinant human CD3ε
T2 construct: Single-chain trispecific; also called TriTAC-XR active drug; constitutively active CD19 TriTAC
T2 sequence (chain, as listed by the source): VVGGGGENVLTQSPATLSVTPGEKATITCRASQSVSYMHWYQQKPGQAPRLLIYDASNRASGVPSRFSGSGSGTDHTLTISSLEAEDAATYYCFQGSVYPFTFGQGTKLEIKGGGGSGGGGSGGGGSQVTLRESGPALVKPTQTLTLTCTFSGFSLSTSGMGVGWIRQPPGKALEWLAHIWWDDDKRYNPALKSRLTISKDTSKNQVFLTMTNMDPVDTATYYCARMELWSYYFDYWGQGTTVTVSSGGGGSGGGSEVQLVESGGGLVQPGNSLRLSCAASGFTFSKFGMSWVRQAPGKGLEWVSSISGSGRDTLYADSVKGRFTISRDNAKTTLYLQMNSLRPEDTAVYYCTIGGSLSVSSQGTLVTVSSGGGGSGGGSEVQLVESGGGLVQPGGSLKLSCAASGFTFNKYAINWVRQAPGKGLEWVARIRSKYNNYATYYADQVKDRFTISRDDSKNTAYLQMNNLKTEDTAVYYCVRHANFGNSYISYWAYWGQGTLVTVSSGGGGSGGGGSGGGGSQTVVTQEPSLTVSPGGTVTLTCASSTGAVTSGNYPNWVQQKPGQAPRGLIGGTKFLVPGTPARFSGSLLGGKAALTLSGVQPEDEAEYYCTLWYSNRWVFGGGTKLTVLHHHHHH

T1 sequence (chain, as listed by the source): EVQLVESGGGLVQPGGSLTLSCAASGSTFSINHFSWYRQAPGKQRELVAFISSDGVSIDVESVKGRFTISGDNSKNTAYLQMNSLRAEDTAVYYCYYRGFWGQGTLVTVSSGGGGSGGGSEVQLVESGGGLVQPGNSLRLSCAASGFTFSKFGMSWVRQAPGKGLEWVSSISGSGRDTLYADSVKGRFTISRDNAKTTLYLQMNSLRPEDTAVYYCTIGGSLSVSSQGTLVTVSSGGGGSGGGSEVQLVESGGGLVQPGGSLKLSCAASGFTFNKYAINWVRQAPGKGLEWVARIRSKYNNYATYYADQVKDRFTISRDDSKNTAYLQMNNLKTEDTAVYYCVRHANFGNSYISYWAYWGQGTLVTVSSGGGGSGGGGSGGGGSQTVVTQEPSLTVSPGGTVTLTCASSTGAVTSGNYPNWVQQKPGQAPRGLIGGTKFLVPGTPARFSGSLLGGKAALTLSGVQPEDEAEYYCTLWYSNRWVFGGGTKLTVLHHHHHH

Kd [1] [nM]	binding result [2]	Binder
3.3	–	cynomolgus CD3 (receptor) QDGNEEMGSITQTPYQVSISGTTVILTCSQHLGSEAQWQHNGKNKEDSGDRLFLPEFSEMEQSGYYVCYPRGSNPEDASHHLYLKARVCENCMEMD
2.7	–	cynomolgus FLT3 (receptor) NQDLPVIKCVLINHKNNDSSVGKSSSYPMVSESPEDLGCALRPQSAGTVYEAATVEVDVSASITLQVLVDTPGNISCLWVFKHSSLNCQPHFDVQNRGVVSMVILKMTETQAGEYLLFIQSEATNYTIVFTVSIRNTLLFTLRRPYFRKMENQDALVCISESVPEPIVEWVLCDSQGESCKEESPAVVKKEEKVLHELFGTDIRCCARNELGRECTRLFTIDLNQTPQTTLPQLFLKVGEPLWIRCKAVHVNHGFGLTWELENKALEEGSYFEMSTYSTNRTMIRILFAFVSSVARNDTGYYTCSSSKHPSQSALVTIVEKGFINATNSSEDYEIDQYEEFCFSVRFKAYPQIRCTWTFSRKAFPCEQKALDDGYSVSKFCNHKHQPGEYIFHAENGDAQFTKMFTLNIRRKPQVLAEASASQASCSSDGYPLPSWTWKKCSDKSPNCTEDIPEGVWNRKANRKVFGQWVSSSTLNMSEAMKGFLVKCCAYNSLGTSCETILLNSPGPFPFIQDS
4.4	–	cynomolgus albumin (other, UniProt A2V9Z4 25-608, looked up, also called cynomolgus serum albumin) DTHKSEVAHRFKDLGEEHFKGLVLVAFSQYLQQCPFEEHVKLVNEVTEFAKTCVADESAENCDKSLHTLFGDKLCTVATLRETYGEMADCCAKQEPERNECFLQHKDDNPNLPPLVRPEVDVMCTAFHDNEATFLKKYLYEVARRHPYFYAPELLFFAARYKAAFAECCQAADKAACLLPKLDELRDEGKASSAKQRLKCASLQKFGDRAFKAWAVARLSQKFPKAEFAEVSKLVTDLTKVHTECCHGDLLECADDRADLAKYMCENQDSISSKLKECCDKPLLEKSHCLAEVENDEMPADLPSLAADYVESKDVCKNYAEAKDVFLGMFLYEYARRHPDYSVMLLLRLAKAYEATLEKCCAAADPHECYAKVFDEFQPLVEEPQNLVKQNCELFEQLGEYKFQNALLVRYTKKVPQVSTPTLVEVSRNLGKVGAKCCKLPEAKRMPCAEDYLSVVLNRLCVLHEKTPVSEKVTKCCTESLVNRRPCFSALELDEAYVPKAFNAETFTFHADMCTLSEKEKQVKKQTALVELVKHKPKATKEQLKGVMDNFAAFVEKCCKADDKEACFAEEGPKFVAASQAALA
–	binds	recombinant human CD3ε (receptor, UniProt P07766 23-126, looked up) DGNEEMGGITQTPYKVSISGTTVILTCPQYPGSEILWQHNDKNIGGDEDDKNIGSDEDHLSLKEFSELEQSGYYVCYPRGSKPEDANFYLYLRARVCENCMEMD
